Reference: patent publication US20110091971A1, “Differentiation of Pluripotent Stem Cells” (priority 2008, published 2011)
Substitutions are numbered along the chain they refer to. Several values for one entry are separate records, joined by “and”; a condition that tells them apart may be missing. Equal entries are not always repeated.

B1: ACTN1: wild type Activin A mature protein (SwissProt/UniProt: P08476), SEQ ID 2, expressed from applicant's construct (protein)
chain: GLECDGKVNICCKKQFFVSFKDIGWNDWIIAPSGYHANYCEGECPSHIAGTSGSSLSFHSTVINHYRMRGHSPFANLKSCCVPTKLRPMSMLYYDDGQNIIKKDIQNMIVEECGCS
B2: ACTN48: activin A variant peptide, SEQ ID 49 (protein)
chain: B1 chain with I10L, F16N, Y39E, E41S, E43L, L77M, K78G, S79A, V82I
B3: ACTN4: activin A variant peptide, SEQ ID 5 (protein)
chain: B1 chain with I10L, F16L, Y39H, E41S, E43L, A75S, N76D, L77M, K78G, S79A

Tested on: H1 or H9 human embryonic stem cells
Assay: Activin A bioassay: differentiation of human embryonic stem cells to definitive endoderm, cell number and SOX17 intensity by high content analysis (96-well, four days);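 for Cell Number average: Raw total cell count per well from high content imaging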;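 for Sox 17 Intensity average: total fluorescence of the cell multiplied by cell area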
Assay type: cell-based
Method in brief: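 Read-out was cell count and integrated SOX17 immunofluorescence by high-content imaging, with each well divided by the mean of the 100 ng/ml activin A control. Over the four-day culture, test samples were given in DMEM:F12 with 0.5% FCS plus 20 ng/ml Wnt3a for the first two days and in 2% FCS alone for the last two. Cells were H1 or H9 hESC clusters grown on Matrigel.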

[1] = concentrated supernatant (10x; ACTD3 4x), assay dilution 1:20
[2] = supernatant concentration 1x, assay dilution 1:20
[3] = supernatant concentration 10x, assay dilution 1:20
[4] = supernatant concentration 10x, assay dilution 1:20, assay plates #007, #009, #010
[5] = supernatant concentration 10x, assay dilution 1:40
[6] = supernatant concentration 10x, assay dilution 1:40, control = R&D Sys Activin A 100 ng/ml on same plate
[7] = supernatant concentration 50x, assay dilution 1:20, assay plates #008, #009
[8] = supernatant concentration 50x, assay dilution 1:20, control = R&D Sys Activin A 100 ng/ml on same plate
[9] = supernatant concentration 10x, assay dilution 1:20, control = R&D Sys Activin A 100 ng/ml on same plate

Molecule | Cell Number average [2] | Cell Number average [3] | Cell Number average [4] | Cell Number average [5] | Sox 17 Intensity average [5] | Sox 17 Intensity % of control [6] | Cell Number average [7] | Sox 17 Intensity average [7] | Sox 17 Intensity % of control [8] | Sox 17 Intensity % of control [9] | further results
B1 | 4284 and 5466 | 7083 and 9254 | 12543 and 11568 and 15112 | 5924 | 1.10E+08 | 480.5% | 13673 | 2.60E+08 | 470.1% |  | activity in the cell-based assay, as judged by cell number and SOX17 intensity increases (ACTN 1 pUnder construct versus OriGene wildtype construct, CHO-S or HEK293-F supernatants): greater activity; expression/activity of supernatant measured by SOX17 expression levels (CHOS cells, even after concentrating the supernatant): weak or negligible results; Cell Number average [1]: 12233; Sox 17 Intensity average [1]: 1.15E+08; Sox 17 Intensity % of control (concentrated supernatant (10x; ACTD3 4x), assay dilution 1:20, control = R&D Sys Activin A 100 ng/ml): 263%; expression/activity of supernatant measured by SOX17 expression levels (pUnder expression vector and HEK293F cells): significantly improved
B2 |  |  | 6030 |  |  |  | 8941 | 3.93E+07 | 157.8% | 71.1% | Sox 17 Intensity average [4]: 1.77E+07
B3 | 6380 | 8916 |  | 6548 | 2.075E+08 | 112.8% |  |  |  | 129.7% | higher potency of supernatant concentrated 10× relative to corresponding unconcentrated supernatant (primary screening, SOX17 expression, H1 cells): 2.6 fold; Sox 17 Intensity average [2]: 9.099E+07; Sox 17 Intensity % of control (supernatant concentration 1x, assay dilution 1:20, control = R&D Sys Activin A 100 ng/ml on same plate): 49.5%; Sox 17 Intensity average [3]: 2.385E+08
